Test results published in the supplement of paper PMC9112550, “Optimization of the antimicrobial peptide Bac7 by deep mutational scanning” (BMC Biology, 2022).

The sequences below were run on Escherichia coli TOP10 (assay: shrunken log2 fold change of peptide-encoding DNA abundance (4.5 h post-induction vs induction); higher = less antimicrobial activity (less host growth inhibition)). Settings: time post-induction: 4.5 h; library: site-saturation at positions 5, 18, 19, 20.
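Further: peptides expressed intracellularly from a pBAD plasmid library in pooled LB shake-flask culture, induced with 0.3% L-arabinose, DNA abundance read by NGS, three biological replicates, DESeq2 with apeglm shrinkage.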

Row | Sequence | shrunken log2 fold change
1 | RRIRIRPPRLPRPRPRPWCNPRP | -0.33
2 | RRIRMRPPRLPRPRPRPWVNPRP | 0.0668
3 | RRIRHRPPRLPRPRPRPSGNPRP | -0.199
4 | RRIRRRPPRLPRPRPRPHDGPRP | -0.0863
5 | RRIRGRPPRLPRPRPRPEYWPRP | 1.03
6 | RRIRGRPPRLPRPRPRPKLHPRP | 0.64
7 | RRIRQRPPRLPRPRPRPDMCPRP | -0.225
8 | RRIRCRPPRLPRPRPRPYRWPRP | -0.141
9 | RRIRARPPRLPRPRPRPNMQPRP | 0.18
10 | RRIRLRPPRLPRPRPRPRYVPRP | -0.265
11 | RRIRPRPPRLPRPRPRPCVTPRP | 0.15
12 | RRIRFRPPRLPRPRPRPDRHPRP | -0.164
13 | RRIRMRPPRLPRPRPRPYRAPRP | -0.691
14 | RRIRPRPPRLPRPRPRPSAWPRP | 0.368
15 | RRIRSRPPRLPRPRPRPNESPRP | -0.153
16 | RRIRDRPPRLPRPRPRPYVWPRP | -0.579
17 | RRIRQRPPRLPRPRPRPAKTPRP | -0.0724
18 | RRIRERPPRLPRPRPRPMKMPRP | 0.0259
19 | RRIRGRPPRLPRPRPRPTRFPRP | 0.19
20 | RRIRARPPRLPRPRPRPWDNPRP | 0.0421
21 | RRIRQRPPRLPRPRPRPRYHPRP | -0.784
22 | RRIRCRPPRLPRPRPRPNGQPRP | -0.0579
23 | RRIRERPPRLPRPRPRPYACPRP | -0.0634
24 | RRIRIRPPRLPRPRPRPYWAPRP | -1.07
25 | RRIRCRPPRLPRPRPRPSVEPRP | 0.00103

Row | Sequence | shrunken log2 fold change
26 | RRIRCRPPRLPRPRPRPWNKPRP | -0.684
27 | RRIRCRPPRLPRPRPRPYEPPRP | -0.151
28 | RRIRIRPPRLPRPRPRPKTVPRP | 0.0407
29 | RRIRWRPPRLPRPRPRPKINPRP | -0.245
30 | RRIRKRPPRLPRPRPRPLPTPRP | 0.491
31 | RRIRHRPPRLPRPRPRPVYVPRP | -0.158
32 | RRIRQRPPRLPRPRPRPHTWPRP | -0.206
33 | RRIRKRPPRLPRPRPRPPWRPRP | 0.734
34 | RRIRPRPPRLPRPRPRPCFCPRP | 0.299
35 | RRIRHRPPRLPRPRPRPQDIPRP | -0.343
36 | RRIRWRPPRLPRPRPRPGHRPRP | 0.315
37 | RRIRIRPPRLPRPRPRPCAKPRP | 0.0416
38 | RRIRDRPPRLPRPRPRPYHIPRP | -0.107
39 | RRIRHRPPRLPRPRPRPAAPPRP | 0.093
40 | RRIRNRPPRLPRPRPRPAKYPRP | -0.134
41 | RRIRKRPPRLPRPRPRPGKYPRP | 0.0356
42 | RRIRKRPPRLPRPRPRPSNVPRP | -0.343
43 | RRIRPRPPRLPRPRPRPQRLPRP | 0.0191
44 | RRIRGRPPRLPRPRPRPFDCPRP | -0.208
45 | RRIRHRPPRLPRPRPRPFHYPRP | -0.0791
46 | RRIRQRPPRLPRPRPRPERGPRP | 0.105
47 | RRIRQRPPRLPRPRPRPEVTPRP | -0.0614
48 | RRIRPRPPRLPRPRPRPLKNPRP | 0.186
49 | RRIRLRPPRLPRPRPRPKQKPRP | 0.0979
50 | RRIRSRPPRLPRPRPRPYAPPRP | -0.205

Row | Sequence | shrunken log2 fold change
51 | RRIRQRPPRLPRPRPRPYMQPRP | -0.239
52 | RRIRGRPPRLPRPRPRPKNDPRP | 0.698
53 | RRIRNRPPRLPRPRPRPWRLPRP | 0.0636
54 | RRIRGRPPRLPRPRPRPVVSPRP | 0.62
55 | RRIRPRPPRLPRPRPRPWDMPRP | -0.0229
56 | RRIRTRPPRLPRPRPRPRCEPRP | 0.117
57 | RRIRYRPPRLPRPRPRPPSQPRP | 0.0859
58 | RRIRLRPPRLPRPRPRPYSMPRP | -0.924
59 | RRIRTRPPRLPRPRPRPYVNPRP | -0.189
60 | RRIRPRPPRLPRPRPRPKPRPRP | 0.502
61 | RRIRCRPPRLPRPRPRPYWVPRP | -0.528
62 | RRIRNRPPRLPRPRPRPIFSPRP | 0.0636
63 | RRIRSRPPRLPRPRPRPTYKPRP | -0.495
64 | RRIRVRPPRLPRPRPRPQAVPRP | -0.0188
65 | RRIRHRPPRLPRPRPRPCIWPRP | -0.121
66 | RRIRYRPPRLPRPRPRPSCGPRP | -0.184
67 | RRIRIRPPRLPRPRPRPMYSPRP | -0.11
68 | RRIRKRPPRLPRPRPRPTNYPRP | -0.114
69 | RRIRHRPPRLPRPRPRPRKRPRP | 0.246
70 | RRIRWRPPRLPRPRPRPCSLPRP | -0.0592
71 | RRIRCRPPRLPRPRPRPYPWPRP | -1.29
72 | RRIRRRPPRLPRPRPRPRVDPRP | 0.00278
73 | RRIRARPPRLPRPRPRPNGHPRP | 0.53
74 | RRIRCRPPRLPRPRPRPQDWPRP | -0.0628
75 | RRIRGRPPRLPRPRPRPTKEPRP | 0.439

Row | Sequence | shrunken log2 fold change
76 | RRIRFRPPRLPRPRPRPEDCPRP | 0.121
77 | RRIRSRPPRLPRPRPRPGWGPRP | 0.291
78 | RRIRDRPPRLPRPRPRPGNNPRP | -0.125
79 | RRIRSRPPRLPRPRPRPVTNPRP | -0.0242
80 | RRIRMRPPRLPRPRPRPSPAPRP | 1.83
81 | RRIRFRPPRLPRPRPRPCPFPRP | -0.988
82 | RRIRDRPPRLPRPRPRPPFFPRP | 0.174
83 | RRIRRRPPRLPRPRPRPIKIPRP | -0.0791
84 | RRIRLRPPRLPRPRPRPSMMPRP | -0.358
85 | RRIRFRPPRLPRPRPRPMGIPRP | -0.23
86 | RRIRTRPPRLPRPRPRPSDHPRP | -0.274
87 | RRIRGRPPRLPRPRPRPLGQPRP | 0.756
88 | RRIRSRPPRLPRPRPRPPDKPRP | 0.0307
89 | RRIRIRPPRLPRPRPRPIQGPRP | -0.0119
90 | RRIRHRPPRLPRPRPRPQIPPRP | 0.0645
91 | RRIRPRPPRLPRPRPRPDAGPRP | 0.442
92 | RRIRGRPPRLPRPRPRPYPYPRP | -0.095
93 | RRIRYRPPRLPRPRPRPTAMPRP | 0.133
94 | RRIRFRPPRLPRPRPRPWHGPRP | -0.151
95 | RRIRHRPPRLPRPRPRPILMPRP | -0.00291
96 | RRIRFRPPRLPRPRPRPDDWPRP | 0.044
97 | RRIRCRPPRLPRPRPRPARLPRP | 0.395
98 | RRIRNRPPRLPRPRPRPADHPRP | -0.0958
99 | RRIRTRPPRLPRPRPRPLARPRP | -0.0885
100 | RRIRMRPPRLPRPRPRPWPVPRP | 0.287

Row | Sequence | shrunken log2 fold change
101 | RRIRARPPRLPRPRPRPVSGPRP | 0.398
102 | RRIRIRPPRLPRPRPRPHHSPRP | -0.46
103 | RRIRFRPPRLPRPRPRPKWPPRP | 0.27
104 | RRIRARPPRLPRPRPRPAKDPRP | 0.316
105 | RRIRERPPRLPRPRPRPNLWPRP | 0.0252
106 | RRIRGRPPRLPRPRPRPEGRPRP | 1.39
107 | RRIRCRPPRLPRPRPRPTISPRP | -0.381
108 | RRIRPRPPRLPRPRPRPVITPRP | -0.123
109 | RRIRIRPPRLPRPRPRPDWDPRP | -0.318
110 | RRIRLRPPRLPRPRPRPWRMPRP | 0.0332
111 | RRIRWRPPRLPRPRPRPGPYPRP | -0.161
112 | RRIRLRPPRLPRPRPRPDTRPRP | -0.278
113 | RRIRIRPPRLPRPRPRPWPSPRP | 0.193
114 | RRIRGRPPRLPRPRPRPKKGPRP | 0.765
115 | RRIRTRPPRLPRPRPRPVEPPRP | 0.00744
116 | RRIRQRPPRLPRPRPRPVRDPRP | 0.556
117 | RRIRFRPPRLPRPRPRPYQAPRP | -0.303
118 | RRIRFRPPRLPRPRPRPDVKPRP | -0.0558
119 | RRIRFRPPRLPRPRPRPTHNPRP | -0.18
120 | RRIRCRPPRLPRPRPRPAHRPRP | 0.392
121 | RRIRPRPPRLPRPRPRPWKMPRP | 0.0124
122 | RRIRHRPPRLPRPRPRPCKCPRP | -0.174
123 | RRIRFRPPRLPRPRPRPTQSPRP | 0.691
124 | RRIRNRPPRLPRPRPRPDWSPRP | -0.256
125 | RRIRMRPPRLPRPRPRPFQCPRP | -0.153

Row | Sequence | shrunken log2 fold change
126 | RRIRSRPPRLPRPRPRPSGGPRP | -0.0437
127 | RRIRDRPPRLPRPRPRPLHHPRP | -0.314
128 | RRIRRRPPRLPRPRPRPVWVPRP | 0.566
129 | RRIRNRPPRLPRPRPRPVLQPRP | -0.157
130 | RRIRTRPPRLPRPRPRPRICPRP | -0.201
131 | RRIRKRPPRLPRPRPRPCFFPRP | 0.113
132 | RRIRVRPPRLPRPRPRPQPAPRP | 0.0494
133 | RRIRHRPPRLPRPRPRPVAGPRP | 0.26
134 | RRIRDRPPRLPRPRPRPCKLPRP | -0.0175
135 | RRIRFRPPRLPRPRPRPLPRPRP | 0.669
136 | RRIRIRPPRLPRPRPRPSWGPRP | -0.0874
137 | RRIRGRPPRLPRPRPRPSLWPRP | 0.611
138 | RRIRLRPPRLPRPRPRPCCCPRP | -0.117
139 | RRIRRRPPRLPRPRPRPWVEPRP | 0.0269
140 | RRIRKRPPRLPRPRPRPTGFPRP | 0.0653
141 | RRIRSRPPRLPRPRPRPHVPPRP | -0.149
142 | RRIRERPPRLPRPRPRPNQPPRP | 0.0495
143 | RRIRKRPPRLPRPRPRPYHFPRP | -0.031
144 | RRIRVRPPRLPRPRPRPIGSPRP | -0.0343
145 | RRIRSRPPRLPRPRPRPKHGPRP | -0.22
146 | RRIRCRPPRLPRPRPRPTWRPRP | 1.4
147 | RRIRHRPPRLPRPRPRPVCPPRP | -0.0334
148 | RRIRPRPPRLPRPRPRPWYDPRP | -0.00228
149 | RRIRNRPPRLPRPRPRPMHEPRP | 0.0425
150 | RRIRHRPPRLPRPRPRPIDMPRP | 0.0231
